Patent US20180305695, “DNA APTAMER THAT BINDS TO vWF” (TAGCYX BIOTECHNOLOGIES, published 2018)

Biological target: von Willebrand factor A1 domain (Homo sapiens, UniProt P04275 SEQ:1277-1453)
Test: EMSA; positive control, gel 4 C; substantially no binding with gel at 25-37 C
Settings: tags: U-Protein Express V003; label: biotin (SPR)
Experimental: The binding ability of the synthesized DNA aptamers was analyzed via gel shift assay. Specifically, the DNA aptamers (100 nM) and the vWF A1 domain (100 nM, V003, U-Protein) were suspended in 20 μl of a reaction solution (1×PBS, 0.005% Nonidet P-40), and incubated at 37° C. for 30 minutes. Thereafter, 25% glycerol containing bromophenol blue was added to be a final concentration of glycerol to 5% therein, the resultant was subjected to 8% nondenaturing polyacrylamide gel electrophoresis at 4° C., and the DNA aptamers bound to the vWF A1 domain were separated from the free DNA aptamers. Thereafter, the DNA aptamers were stained with SYBR Gold (Thermo Fisher Scientific) diluted 1/20,000-fold with the 1×TBE solution and detected by a bioimage analyzer (LAS-4000, Fujifilm Corporation). The percentage of gel shifting was determined by dividing the amount of the complex by the amount of the free form and the complex, each deduced based on a band and expressing the determined value in a percentage figure.
Gel shift assay was carried out in the same manner as in Example 3, except that electrophoresis was carried out at 4° C. and 300 V, 25° C. and 40 W, and 37° C. and 40 W.
And the activity of vWF2-DsAA (o) and vWF2-AADs (p) were decreased in comparison with vWF2-DsDsDs (m).

B1: ARC1172 (ssDNA)
DNA: GGCGTGCAGTGCCTTCGGCCGTGCGGTGCCTCCGTCACGCC
binding result: binds
